Experimental data: article PMC8576073, “Ultra pH‐sensitive detection of total and free prostate‐specific antigen using electrochemical aptasensor based on reduced graphene oxide/gold nanoparticles emphasis on TiO2/carbon quantum dots as a r”

Target: prostate-specific antigen (PSA) (human, UniProt P07288 25-261)
Test: electrochemical aptasensor (CV, SWV, EIS); ferrocyanide or TiO2/CQDs redox probe; 30 min binding; detection 0.5-7 ng/ml; LOD is not a Kd; Aptamer electrode washed with 0.1 mol/L PBS pH 7.0; PSA 30 min; 1.0 mM K3/K4[Fe(CN)6] (1:1), or TiO2/CQDs electrolyte at pH 5.4 and pH 8; temperature not stated
Conditions: protein: commercial

Sequence of prostate-specific antigen (PSA) (P07288 25-261): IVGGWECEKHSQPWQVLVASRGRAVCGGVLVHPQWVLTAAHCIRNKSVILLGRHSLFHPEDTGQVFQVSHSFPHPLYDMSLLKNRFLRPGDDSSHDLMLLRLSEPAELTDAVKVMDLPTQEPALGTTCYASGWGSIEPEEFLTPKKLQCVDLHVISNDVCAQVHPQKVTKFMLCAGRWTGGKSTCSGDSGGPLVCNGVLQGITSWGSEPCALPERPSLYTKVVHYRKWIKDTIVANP

## TTTTTTTTTTATTAAAGCTCGCCATCAAATAGCTGC (ssDNA, 5'-HS (thiol)) [thiolated PSA binding DNA aptamer]
  binding result: binds
